From patent EP3717020B1 come the findings set out here.

The assay addresses endogenous RAS proteins in HeLa cells. Kind of assay: cell-based or functional assay.

In turn, RRSP-APD-Δdta-dtB (enzyme) registered an EC50 of loss of RAS proteins in HeLa cells (anti-RAS immunoblot) of 1 pM and a potency of RAS loss in HeLa cells against RRSP-dta-dtB of 300 fold. Turning to RRSP-dta-dtB (enzyme), the EC50 of loss of total RAS proteins in HeLa cells (24 h, anti-RAS immunoblot) is 0.25 nM. Substance RRSP-Δdta-dtB (enzyme) showed an EC50 of loss of RAS proteins in HeLa cells (anti-RAS immunoblot) of 1 pM and a potency of RAS loss in HeLa cells against RRSP-dta-dtB of 300 fold.
